± gives the standard deviation of the averaged measurements.
B1: library; a variant is named by its letters at N, in order (parent)
chain: GCUGUCACCGAGAAACUGUGAAGUAUAUCUUAAACCUGGGCACUUAAAAGAUAUAUGGAGUUAGUAGUGCAACCUGCUCGGUCUGAUGAGUCCNNNNNNGGACGAAACAGC

What was measured:
cyclic di-GMP [1] = variants of: B1; assay: normalized RNA/DNA level without ligand (relative to sTRSVctl = 100) (log10 (% of sTRSVctl)); HEK293T; ligand: cyclic di-GMP (c-di-GMP-II aptamer); higher = less ribozyme self-cleavage, higher mRNA level; conditions: reporter: mCherry (pCS4076), ligand present: no
In short: (§1)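 Total RNA, extracted with EDTA 72 h after HEK293T cells were transfected with 4 µg per 6-well well of reporter-linked ribozyme switch library plasmids, was reverse-transcribed, amplified, barcoded and sequenced. Ligand, if used, was added 1 h before transfection. RNA level was derived from RNA reads divided by DNA reads and normalized to a spiked-in non-cleaving sequence or to the top sequences. This was multiplied by 100 and log10-transformed, with the top set of 25 sequences and a ≥100 DNA read minimum.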

cyclic di-GMP [2] = variants of: B1; assay: normalized RNA/DNA level with ligand (relative to sTRSVctl = 100) (log10 (% of sTRSVctl)); HEK293T; ligand: cyclic di-GMP (c-di-GMP-II aptamer); ligand concentration (+) RNA-Seq: 1 mM; higher = less ribozyme self-cleavage, higher mRNA level; conditions: reporter: mCherry (pCS4076), ligand present: yes
In short: as §1

## CAACCC
Cyclic di-GMP [1]
  normalized RNA/DNA level without ligand (log10): 1.719 ± 0.015
Cyclic di-GMP [2]
  normalized RNA/DNA level with ligand (log10): 1.82 ± 0.12

## UCAUUC
Cyclic di-GMP [1]
  normalized RNA/DNA level without ligand (log10): 1.69 ± 0.051
Cyclic di-GMP [2]
  normalized RNA/DNA level with ligand (log10): 1.85 ± 0.084

## AACGAA
Cyclic di-GMP [1]
  normalized RNA/DNA level without ligand (log10): 1.38 ± 0.059
Cyclic di-GMP [2]
  normalized RNA/DNA level with ligand (log10): 1.59 ± 0.16

## AACGUA
Cyclic di-GMP [1]
  normalized RNA/DNA level without ligand (log10): 1.51 ± 0.024
Cyclic di-GMP [2]
  normalized RNA/DNA level with ligand (log10): 1.73 ± 0.1

## CAUCGU
Cyclic di-GMP [1]
  normalized RNA/DNA level without ligand (log10): 1.74 ± 0.095
Cyclic di-GMP [2]
  normalized RNA/DNA level with ligand (log10): 1.83 ± 0.098

## UUCUCA
Cyclic di-GMP [1]
  normalized RNA/DNA level without ligand (log10): 1.78 ± 0.073
Cyclic di-GMP [2]
  normalized RNA/DNA level with ligand (log10): 1.9 ± 0.087

## AUUUGA
Cyclic di-GMP [1]
  normalized RNA/DNA level without ligand (log10): 1.51 ± 0.052
Cyclic di-GMP [2]
  normalized RNA/DNA level with ligand (log10): 1.75 ± 0.16

## UGGCAG
Cyclic di-GMP [1]
  normalized RNA/DNA level without ligand (log10): 1.847 ± 0.0028
Cyclic di-GMP [2]
  normalized RNA/DNA level with ligand (log10): 1.93 ± 0.063

## ACUAUG
Cyclic di-GMP [1]
  normalized RNA/DNA level without ligand (log10): 1.586 ± 0.01
Cyclic di-GMP [2]
  normalized RNA/DNA level with ligand (log10): 1.75 ± 0.087

## GACGCA
Cyclic di-GMP [1]
  normalized RNA/DNA level without ligand (log10): 1.77 ± 0.055
Cyclic di-GMP [2]
  normalized RNA/DNA level with ligand (log10): 1.88 ± 0.085

## CAAGGC
Cyclic di-GMP [1]
  normalized RNA/DNA level without ligand (log10): 1.705 ± 0.0097
Cyclic di-GMP [2]
  normalized RNA/DNA level with ligand (log10): 1.82 ± 0.12

## GACUGC
Cyclic di-GMP [1]
  normalized RNA/DNA level without ligand (log10): 1.705 ± 0.012
Cyclic di-GMP [2]
  normalized RNA/DNA level with ligand (log10): 1.88 ± 0.068

## CCACUG
Cyclic di-GMP [1]
  normalized RNA/DNA level without ligand (log10): 1.39 ± 0.042
Cyclic di-GMP [2]
  normalized RNA/DNA level with ligand (log10): 1.63 ± 0.12

## UUCGCC
Cyclic di-GMP [1]
  normalized RNA/DNA level without ligand (log10): 1.7 ± 0.051
Cyclic di-GMP [2]
  normalized RNA/DNA level with ligand (log10): 1.83 ± 0.067

## GAGCUA
Cyclic di-GMP [1]
  normalized RNA/DNA level without ligand (log10): 1.79 ± 0.038
Cyclic di-GMP [2]
  normalized RNA/DNA level with ligand (log10): 1.88 ± 0.11

## AACCUA
Cyclic di-GMP [1]
  normalized RNA/DNA level without ligand (log10): 1.51 ± 0.041
Cyclic di-GMP [2]
  normalized RNA/DNA level with ligand (log10): 1.71 ± 0.13

## AGGCAU
Cyclic di-GMP [1]
  normalized RNA/DNA level without ligand (log10): 1.63 ± 0.018
Cyclic di-GMP [2]
  normalized RNA/DNA level with ligand (log10): 1.83 ± 0.11

## UGUCAG
Cyclic di-GMP [1]
  normalized RNA/DNA level without ligand (log10): 1.67 ± 0.042
Cyclic di-GMP [2]
  normalized RNA/DNA level with ligand (log10): 1.82 ± 0.1

## GCAACG
Cyclic di-GMP [1]
  normalized RNA/DNA level without ligand (log10): 1.54 ± 0.046
Cyclic di-GMP [2]
  normalized RNA/DNA level with ligand (log10): 1.78 ± 0.11

## GCAAGA
Cyclic di-GMP [1]
  normalized RNA/DNA level without ligand (log10): 1.33 ± 0.12
Cyclic di-GMP [2]
  normalized RNA/DNA level with ligand (log10): 1.54 ± 0.1

## ACGUAG
Cyclic di-GMP [1]
  normalized RNA/DNA level without ligand (log10): 1.55 ± 0.021
Cyclic di-GMP [2]
  normalized RNA/DNA level with ligand (log10): 1.72 ± 0.14

## GCUUAC
Cyclic di-GMP [1]
  normalized RNA/DNA level without ligand (log10): 1.53 ± 0.026
Cyclic di-GMP [2]
  normalized RNA/DNA level with ligand (log10): 1.75 ± 0.075

## AAGCUC
Cyclic di-GMP [1]
  normalized RNA/DNA level without ligand (log10): 1.74 ± 0.012
Cyclic di-GMP [2]
  normalized RNA/DNA level with ligand (log10): 1.89 ± 0.13

## AUGGCC
Cyclic di-GMP [1]
  normalized RNA/DNA level without ligand (log10): 1.78 ± 0.024
Cyclic di-GMP [2]
  normalized RNA/DNA level with ligand (log10): 1.9 ± 0.13

## CCUUGG
Cyclic di-GMP [1]
  normalized RNA/DNA level without ligand (log10): 1.76 ± 0.081
Cyclic di-GMP [2]
  normalized RNA/DNA level with ligand (log10): 1.9 ± 0.15

## CAUCAG
Cyclic di-GMP [1]
  normalized RNA/DNA level without ligand (log10): 1.69 ± 0.044
Cyclic di-GMP [2]
  normalized RNA/DNA level with ligand (log10): 1.76 ± 0.13

## AUGUAG
Cyclic di-GMP [1]
  normalized RNA/DNA level without ligand (log10): 1.59 ± 0.017
Cyclic di-GMP [2]
  normalized RNA/DNA level with ligand (log10): 1.77 ± 0.11

## GAGGGA
Cyclic di-GMP [1]
  normalized RNA/DNA level without ligand (log10): 1.65 ± 0.027
Cyclic di-GMP [2]
  normalized RNA/DNA level with ligand (log10): 1.74 ± 0.083

## AACCGC
Cyclic di-GMP [1]
  normalized RNA/DNA level without ligand (log10): 1.718 ± 0.0043
Cyclic di-GMP [2]
  normalized RNA/DNA level with ligand (log10): 1.86 ± 0.1

## CAUGUC
Cyclic di-GMP [1]
  normalized RNA/DNA level without ligand (log10): 1.72 ± 0.035
Cyclic di-GMP [2]
  normalized RNA/DNA level with ligand (log10): 1.82 ± 0.088

## CCAAUU
Cyclic di-GMP [1]
  normalized RNA/DNA level without ligand (log10): 1.58 ± 0.06
Cyclic di-GMP [2]
  normalized RNA/DNA level with ligand (log10): 1.72 ± 0.086

## CAUAGC
Cyclic di-GMP [1]
  normalized RNA/DNA level without ligand (log10): 1.73 ± 0.062
Cyclic di-GMP [2]
  normalized RNA/DNA level with ligand (log10): 1.84 ± 0.13

## UACAGC
Cyclic di-GMP [1]
  normalized RNA/DNA level without ligand (log10): 1.619 ± 0.0088
Cyclic di-GMP [2]
  normalized RNA/DNA level with ligand (log10): 1.77 ± 0.11

## UCUAUA
Cyclic di-GMP [1]
  normalized RNA/DNA level without ligand (log10): 1.56 ± 0.067
Cyclic di-GMP [2]
  normalized RNA/DNA level with ligand (log10): 1.74 ± 0.12

## CGAGCU
Cyclic di-GMP [1]
  normalized RNA/DNA level without ligand (log10): 1.82 ± 0.022
Cyclic di-GMP [2]
  normalized RNA/DNA level with ligand (log10): 1.88 ± 0.077

## AUCAUA
Cyclic di-GMP [1]
  normalized RNA/DNA level without ligand (log10): 1.615 ± 0.0089
Cyclic di-GMP [2]
  normalized RNA/DNA level with ligand (log10): 1.74 ± 0.075

## AGCCGA
Cyclic di-GMP [1]
  normalized RNA/DNA level without ligand (log10): 1.748 ± 0.014
Cyclic di-GMP [2]
  normalized RNA/DNA level with ligand (log10): 1.84 ± 0.14

## CACGUA
Cyclic di-GMP [1]
  normalized RNA/DNA level without ligand (log10): 1.504 ± 0.014
Cyclic di-GMP [2]
  normalized RNA/DNA level with ligand (log10): 1.7 ± 0.056

## GUCCGA
Cyclic di-GMP [1]
  normalized RNA/DNA level without ligand (log10): 1.63 ± 0.024
Cyclic di-GMP [2]
  normalized RNA/DNA level with ligand (log10): 1.78 ± 0.14

## UGAACU
Cyclic di-GMP [1]
  normalized RNA/DNA level without ligand (log10): 1.72 ± 0.052
Cyclic di-GMP [2]
  normalized RNA/DNA level with ligand (log10): 1.86 ± 0.11

## AUGCCG
Cyclic di-GMP [1]
  normalized RNA/DNA level without ligand (log10): 1.7503 ± 0.0015
Cyclic di-GMP [2]
  normalized RNA/DNA level with ligand (log10): 1.86 ± 0.13

## UUGAGG
Cyclic di-GMP [1]
  normalized RNA/DNA level without ligand (log10): 1.79 ± 0.028
Cyclic di-GMP [2]
  normalized RNA/DNA level with ligand (log10): 1.87 ± 0.14

## UUAUAA
Cyclic di-GMP [1]
  normalized RNA/DNA level without ligand (log10): 1.6409 ± 0.0011
Cyclic di-GMP [2]
  normalized RNA/DNA level with ligand (log10): 1.81 ± 0.13

## UCCACG
Cyclic di-GMP [1]
  normalized RNA/DNA level without ligand (log10): 1.77 ± 0.057
Cyclic di-GMP [2]
  normalized RNA/DNA level with ligand (log10): 1.87 ± 0.11

## UAACAC
Cyclic di-GMP [1]
  normalized RNA/DNA level without ligand (log10): 1.68 ± 0.035
Cyclic di-GMP [2]
  normalized RNA/DNA level with ligand (log10): 1.83 ± 0.13

## CACGUU
Cyclic di-GMP [1]
  normalized RNA/DNA level without ligand (log10): 1.729 ± 0.0022
Cyclic di-GMP [2]
  normalized RNA/DNA level with ligand (log10): 1.86 ± 0.088

## UCUCGG
Cyclic di-GMP [1]
  normalized RNA/DNA level without ligand (log10): 1.9 ± 0.063
Cyclic di-GMP [2]
  normalized RNA/DNA level with ligand (log10): 1.96 ± 0.13

## CGAGUU
Cyclic di-GMP [1]
  normalized RNA/DNA level without ligand (log10): 1.72 ± 0.08
Cyclic di-GMP [2]
  normalized RNA/DNA level with ligand (log10): 1.84 ± 0.094

## UGCGGA
Cyclic di-GMP [1]
  normalized RNA/DNA level without ligand (log10): 1.559 ± 0.0066
Cyclic di-GMP [2]
  normalized RNA/DNA level with ligand (log10): 1.78 ± 0.12

## AGGGGU
Cyclic di-GMP [1]
  normalized RNA/DNA level without ligand (log10): 1.57 ± 0.058
Cyclic di-GMP [2]
  normalized RNA/DNA level with ligand (log10): 1.7 ± 0.13

## AUCGGG
Cyclic di-GMP [1]
  normalized RNA/DNA level without ligand (log10): 1.67 ± 0.069
Cyclic di-GMP [2]
  normalized RNA/DNA level with ligand (log10): 1.81 ± 0.12

## ACAUUU
Cyclic di-GMP [1]
  normalized RNA/DNA level without ligand (log10): 1.42 ± 0.05
Cyclic di-GMP [2]
  normalized RNA/DNA level with ligand (log10): 1.67 ± 0.11

## GCUCCC
Cyclic di-GMP [1]
  normalized RNA/DNA level without ligand (log10): 1.71 ± 0.052
Cyclic di-GMP [2]
  normalized RNA/DNA level with ligand (log10): 1.83 ± 0.17

## AAAACC
Cyclic di-GMP [1]
  normalized RNA/DNA level without ligand (log10): 1.68 ± 0.014
Cyclic di-GMP [2]
  normalized RNA/DNA level with ligand (log10): 1.81 ± 0.083

## UUGCUA
Cyclic di-GMP [1]
  normalized RNA/DNA level without ligand (log10): 1.62 ± 0.052
Cyclic di-GMP [2]
  normalized RNA/DNA level with ligand (log10): 1.81 ± 0.07

## CGCCAG
Cyclic di-GMP [1]
  normalized RNA/DNA level without ligand (log10): 1.76 ± 0.075
Cyclic di-GMP [2]
  normalized RNA/DNA level with ligand (log10): 1.9 ± 0.072

## GACUCA
Cyclic di-GMP [1]
  normalized RNA/DNA level without ligand (log10): 1.709 ± 0.011
Cyclic di-GMP [2]
  normalized RNA/DNA level with ligand (log10): 1.83 ± 0.11

## ACCGUG
Cyclic di-GMP [1]
  normalized RNA/DNA level without ligand (log10): 1.57 ± 0.096
Cyclic di-GMP [2]
  normalized RNA/DNA level with ligand (log10): 1.77 ± 0.097
